Source: the supplement of paper PMC12764529

Assay: folding stability dG unfold (combined trypsin and chymotrypsin); higher = more stable
Description: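 Folding stability of de novo designed mini-proteins (<80 aa, no Cys; designed by TrROS, TrMRF, ProteinMPNN and the joint model) was measured by cDNA display proteolysis with trypsin and chymotrypsin. Each protease was used at 11 concentrations in a threefold dilution series plus a no-protease condition. K50 was inferred by Bayesian fitting of sequencing counts, and dG unfold was derived against a sequence-predicted unfolded-state K50 (Tsuboyama et al. method). Sequences shown include variable-length N-terminal GS-type padding (SAGGSAGG...) inside a display construct carrying a PA tag. Rows were kept only if the AF2 dimer inter-PAE was >15, to exclude likely homo-oligomers.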

Row | Sequence | folding stability dG unfold [kcal/mol]
1 | SAGGSAGGSAGGSMKISLEFKVPIYEEFPGKEKPVEEVEVPVEVPENNEEEAEKIKKELSAGGSAGGSAGGS [r4_153_JUSTAS] | < -1
2 | SAGGSAGGFTFRDPENGRKITIEPQPNPDGPMYYNIEVRDPDNNENKTINFPMPLNEIEDLAKDSAGGSAGG [r6_996_TrROS] | < -1
3 | SAGGRYLTLRIPPNHPGDIDIEPVPADDMPPGWGYKIYSPKKGHTQTFPLDNADELLDHPGIDEIEPVSAGG [r19_302_TrROS] | < -1
4 | SAGGSAGGSAGGSVKTPEGVEVAPDEPVEERVEHPPVARPVKVTLYALPNSNEYSEEIASAGGSAGGSAGGS [r4_13_JUSTAS] | < -1
5 | SAGGSAGGSAGTIRNPGMEFTIKKDPNDKVVVKMNDQERTIRVGKPIYFPGGMPFRIEPASAGGSAGGSAGG [r11_147_TrROS] | < -1
6 | SAGGSAGGSMPVTRPVATLPGPVTLYETTSPGERRLVRVTETPLPTPEPRTEVRLTVEVRPVGSAGGSAGGS [r12_353_JUSTAS] | < -1
7 | SAGGSAGGSAPKLKFETEPYPNGGYYHKVKIDLEGPKIPITIPVNNNQPMPIEDFAKHILKKSAGGSAGGSA [r18_111_TrROS] | < -1
8 | SAGGSAGGSVIEKDPDDTILLKLEIPEEGKESLVTLPKDEVEKVIEEKGVKKLTALKLGEPKPSAGGSAGGS [r12_294_JUSTAS] | < -1
9 | SAGGSAGGSAGGGAKPNQPVKVKIKYELLREEKELLPDGSVKTKKEVKVEIEGYEDADFKSAGGSAGGSAGG [r7_919_TrMRF] | < -1
10 | SAMTIPVLVEGDIEKLEEREEEIKREVAEELGLPEDLKDLKVEVLEIEPLPDEDGKPTKVRMLVEVHLRSAG [r14_736_TrMRF] | < -1
11 | SAGGSAGGSAGGSGSMEPQVVLRVTDTRGGNPTVTIYSPDVPLPPSPTTTVEPRPVSLESAGGSAGGSAGGS [r4_107_JUSTAS] | < -1
12 | SAGGSAGGSPGNIPINIKIEPYDPDGGEKRKRTIPFPFQDPEGARRHLNKIADEFPPGWRVEISAGGSAGGS [r20_211_TrROS] | < -1
13 | PIITVSSLEELKKAIKELVEKIVEEAKKAGYPDKKVIVSIPVVLIDEKTGKPKILPILIEIYPDGTVKIYGS [r1_316_TrMRF] | > 6
14 | SAGGSAGGEKPLKVTIKVKEKRLTENGIPEEFEKEIVVEAPLEEATKLVKAIPKDKVVSVEVEGSAGGSAGG [r6_984_TrMRF] | < -1
15 | SAGGSAGGSRTFRSPSGVRYTETSSVLETSPDPENGLWSTVTSSVVSVDPGPPAPPPPLSPALVSAGGSAGG [r6_939_JUSTAS] | < -1
16 | SAGGSAGGSAGLNVGDVVVEVEAGTEYEFLIPNPAKLVKVKVVPDPTTNELKVEEAKVYDLKSAGGSAGGSA [r18_222_TrMRF] | < -1
17 | SAGGSAGGSSEKEEKIRNIIKENFPENVIKKVEFNNDIVKIYGIPEYVKKAKEKLGSKNFIENSAGGSAGGS [r12_748_TrMRF] | < -1
18 | SAGGSAGGSANLEAAKKLFKDYPPGEEREIPIRVRTPGKPVPFRIKIYYPEDGNMKIDIEPYSAGGSAGGSA [r18_493_TrROS] | < -1
19 | SAGGSAGGSALLPLPEDAVLEVPFPGTEEEAEVFAAELAKAFPVGEITLEKEPTSYRLVVRSAGGSAGGSAG [r3_73_TrMRF] | < -1

Row | Sequence | folding stability dG unfold [kcal/mol]
20 | SDAIKNQTIEELLDQLPPGDEPGEPKEFTIPGYEIKITDFEPEKDDGGGPRPRRVIEVEDPNGPIEIPIESA [r9_279_TrROS] | < -1
21 | SAGGSAGGPVIPTPSDLVVEVGKLSEELSFLSKSVRPNGPEELVFDSSVLVEEGVKVLKPSDRRSAGGSAGG [r6_586_JUSTAS] | < -1
22 | EPEYVVFVDINPVFTRVDENGNVLEEFPRKVPYTGPGKDPEKVREELEREYGPPVKILKTLPKSEVDAGLLS [r1_493_JUSTAS] | < -1
23 | GMRPVTATIEIGPNGKLTLQPAVGPSTVVPVKSKEEGIAVVKELVPPDRPITLTFYEKSKKISTEPIEIPPS [r1_276_JUSTAS] | < -1
24 | SAGGSAGGSAGGTISFPTSSGLIKVEDMTIEEAKEKLKKENPNAKVIKLPTPNVYLIEVKSAGGSAGGSAGG [r7_370_JUSTAS] | < -1
25 | SAGGKDAIVNVVEIPIKIEVKTKTKNPILPDGIPIPETELEVKIEIPIKVKPVKVKLEKPGKIVSVEDSAGG [r13_148_TrMRF] | < -1
26 | SAGGSAGGSAGGMTVKEIAEKLGLPPGLKVEDIPLDPPNGYFEIEITHDDGPHTYRIPISAGGSAGGSAGGS [r10_17_TrROS] | < -1
27 | SAGGSAPPKIDIDVEPNPEEGYYRVTVEFPDGWPLKIPYPYPDPEDNKRNAKKHVKWILKKHEELLSAGGSA [r15_477_TrROS] | < -1
28 | SAGGSAGGSAGGGKVYVFRAPDALVLVPVEENPDTDEFTVTVDPGGDDPDIAKKLAEALSAGGSAGGSAGGS [r10_582_TrMRF] | < -1
29 | SAGGSAGGSAGGAMPSDVLSTTTEPVAPTGSKTVSAPDAVVTVTLDPNTPVATTKTYGVSAGGSAGGSAGGS [r10_965_JUSTAS] | < -1
30 | SAGGSAATVVDPSTGSTYTFTPEGSGYRITRTLVTPDPTSDAVSTAPTTELLPPSEIPPELLARLSSAGGSA [r15_703_JUSTAS] | < -1
31 | SAGGSAGGSAGPDDFVTLTETIVEEIDPNLAELPPEVAERLVKEGVKVIEKVLTKVAPPSLLSAGGSAGGSA [r18_127_JUSTAS] | < -1
32 | SAGGMTLEEVRALAQRVSREPLPGGGSRWVVTFPRPVPGGPAAPVTREIPVPADRPDATEEEVLARLVSAGG [r13_319_JUSTAS] | < -1
33 | SAGGSAGGSAGGSMVTTKDPNSPVTYTLVPRPTPEELVVKTTTNPDGTPTVTLLPASLLSAGGSAGGSAGGS [r4_434_JUSTAS] | < -1
34 | SDDDFADSPEAKKNMENMKPVPPPPTITINVKGDDPEDALDDIREHFPGLDPSNIKSVETTDGTLTITFQSA [r9_723_TrROS] | < -1
35 | SAGGSAGGSAGGGPMVTRTIPRGVVVTKAELKDDKPVKYTVVKEEPVPVTVRALPEELLSAGGSAGGSAGGS [r10_492_JUSTAS] | < -1
36 | SAGGSATITLKPGEKVEITVTITVTEYKYDKNGKLVEKKTYKITVKATFTVDEDGNIHVEIKIEIESAGGSA [r2_154_TrROS_Hall] | > 6
37 | KVPAGVEDVKVVKGPLTVKITAPVKNPNVPIKVGNKDGKVVSEKWKVDKAAGKVTVEVPVKKANEVTFNPES [r1_138_TrMRF] | < -1
38 | SAGGSAGGSAGGKIEVDVETERHDGRPYYEVEIRHPDNGKPVEIPMPMNNPEEALKAAKSAGGSAGGSAGGS [r10_271_TrROS] | < -1

Row | Sequence | folding stability dG unfold [kcal/mol]
39 | SAGGSAMKDFADAPGITDIHPYPDGTISIHFKSSPNARDKIVEALRKEGNIDIKTHPDHGMIRIKVSAGGSA [r15_554_TrROS] | < -1
40 | SAGGSAGGSAGGNKIVIPFEELEEARENGDPHKARKLVRERGMDPEDVTIEIITPEALKESAGGSAGGSAGG [r7_7_TrROS] | < -1
41 | SADWYYWKNPKDGKEHTVDPEELSPEFAKKGIEPEEPVPPVINIDVDSAEQADELADEFPNKVQVQPNGSAG [r14_638_TrROS] | < -1
42 | SAGGMKTVVTTEPATFDATDPNTGVPIGTVTIGPVVTTKPPNAVTTHYTFRIGGTEVATSTTTNPGLASAGG [r13_758_JUSTAS] | < -1
43 | SAGGSAGGSQKITIEWHKPGAWRIRIPGNGRERHLPMDKPLEEIANTAEKKFPNIPVEIERVKSAGGSAGGS [r12_423_TrROS] | < -1
44 | SAMKPGTVVKVTIIPTEEKLIYNVPEKTVLKSSRTVDATVTKVSTPGSKVTLEIDLPDLPPGSEIELGLSAG [r14_412_JUSTAS] | < -1
45 | SAGGSAGGSAGPPFEVVGVSRHGDSVTVLARNPDSDELVASTFTNGVIGSTAVIPSEEVGSAGGSAGGSAGG [r11_19_TrMRF] | < -1
46 | SAGGSAGGSAGKKIEIDEANPEENMYRISFPDKRTHQFDSAEDLKEQIPPGIPVEIEPLKSAGGSAGGSAGG [r17_295_TrROS] | < -1
47 | SAGGSAFFRIKVEKNNGKKREIMFPIPENHDPSEAREMVKELAKNIARKQGHPNVPIKVTDIEPFPSAGGSA [r15_463_TrROS] | < -1
48 | SAGGMKTIKLPPFTEEELEKVIEEAEKNPNSDVKITLPEGKEYYIKPPGKLKELKVEELPPLPESLESAGGS [r16_248_JUSTAS] | < -1
49 | SAGMTINNTGSVEELKKLPDVVEIEKEGNKYTIKMPGETVEVELNPPKPVPKGPPYTSESEKKKKSEKSSAG [r5_2_JUSTAS] | < -1
50 | SAGGSAGGSAAPVSEREVTLTGSGTPRVVPVRVLGEAASPSESIATEATLPDGRPLRLTLRESAGGSAGGSA [r18_54_JUSTAS] | < -1
51 | SAGGPPKKIEDIKIEDWRYDPENNQVTNTIELENDNGKEREIDVQMPNEDMEDMPPEEMLKAAKDFIDSAGG [r13_512_TrROS] | < -1
52 | SAGGSAGGSAGGPIKIDVQVMPHDNEWYIMIRREYPYPDGKRQEREIMIPADNVKDLDDISAGGSAGGSAGG [r7_835_TrROS] | < -1
53 | SAGGSAGGSAGGWYISIEPKNKKEKTIMIPPGDPDILEELADNGDRVSIFDPKNGKEFKVSAGGSAGGSAGG [r7_430_TrROS] | < -1
54 | SAGGSAGGSAMNPSEPYVTLTETVVEEAEEVVETFPGYGVYKYTETKLKTTVKVTTVPKSLLSAGGSAGGSA [r18_137_JUSTAS] | < -1
55 | SAGGMRLADTLEEVENAAPGEIVALRAPDPLTPRPVVLVFRNPDGELGPLAYADADGNIHLPEELKEAGSAG [r5_490_TrMRF] | < -1
56 | SAGGSAGGEVEEEALKVAEELRREGKTGPVEKTVDIVVKTPENVPIPLNITVTVEPPSGVVTVNSAGGSAGG [r6_102_JUSTAS] | < -1
57 | SAGGSAGGSAGGTVEELAKQIQEEWQENGFKVEKVEVEDGTIKIEWKNGRQREIPFEKGSAGGSAGGSAGGS [r10_169_TrROS] | < -1
